For 36 sequences, protein stability index results are on record in the supplement of paper PMC10567573.

This data set can be described thus: protein stability index of a GFP-peptide fusion (GPS, HEK-293T) (PSI 1-6); higher = more stable. The settings on record: c terminus: a fixed tail appended.

± gives the standard deviation.
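Also: 24-mer peptide tiles fused after GFP, lentivirally expressed, FACS-sorted into six equal bins by GFP/DsRed ratio, decoded by Illumina sequencing, PSI is the read-weighted mean bin number.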

In the case of EMRTKEQILELLVLEQFLTILPQE [ZNF263], the protein stability index (treatment: DMSO) is 2.44 ± 0.35 and the protein stability index (treatment: MLN4924 1 uM, 8 h) came to 2.26 ± 0.43.

Turning to ENAGGSPSPEPAGRRAALYVHWPY [RSAD1], the protein stability index by setting is: (treatment: DMSO) 3 ± 0.4; (treatment: MLN4924 1 uM, 8 h) 3.23 ± 0.34.

Consider ENHQPVSLSDLEIQASAGVISKKA [ZNF75A], for which the protein stability index (treatment: DMSO) was 4.94 ± 0.19 and the protein stability index (treatment: MLN4924 1 uM, 8 h) was determined as 4.98 ± 0.39.

Regarding EPCGPGKSKLTYMCRVDLRGHMPE [DLC1], the protein stability index by setting is: (treatment: DMSO) 2.45 ± 0.29; (treatment: MLN4924 1 uM, 8 h) 2.11 ± 0.52.

Turning to EPGPAAYGLKPLTPNSKYVKLNVG [KCTD13], the protein stability index by setting is: (treatment: DMSO) 3.66 ± 0.11; (treatment: MLN4924 1 uM, 8 h) 3.62 ± 0.31.

Turning to EPPPKSGPSLVPGKTPTVRAALIC [CD207], the protein stability index came out at 3 ± 0.15 (treatment: DMSO) and 3 ± 0.23 (treatment: MLN4924 1 uM, 8 h).

Regarding EQAKKESEDQKRLKQAKELDRERA [CHCHD3], the protein stability index reads like this: (treatment: DMSO) 5.57 ± 0.24; (treatment: MLN4924 1 uM, 8 h) 5.48 ± 0.17.

Regarding EQAQAYAERLGVTFFEVSPLCNFN [RAB40A], the protein stability index (treatment: DMSO) turned out to be 2.25 ± 0.26 and the protein stability index (treatment: MLN4924 1 uM, 8 h) is 2.48 ± 0.3.

EQIAERKRKMVSWEASSLGLVTAA [KMT2E]: the protein stability index reads like this: (treatment: DMSO) 2.65 ± 0.45; (treatment: MLN4924 1 uM, 8 h) 3.33 ± 0.76.

Take EQLFFVRLVGKTPIETLIRDMLLS [NR2F2]: the protein stability index is, setting by setting: (treatment: DMSO) 2.56 ± 0.47; (treatment: MLN4924 1 uM, 8 h) 2.42 ± 0.61.

As to ERPMYGRDSAYQSITHYRPVSASR [EMD], the protein stability index runs as follows: (treatment: DMSO) 3.81 ± 0.26; (treatment: MLN4924 1 uM, 8 h) 3.76 ± 0.28.

In the case of ERRRELVRSQTLPRTSEAQARKAL [SMTNL2], the protein stability index is, setting by setting: (treatment: DMSO) 5.27 ± 0.39; (treatment: MLN4924 1 uM, 8 h) 5.27 ± 0.29.

Turning to ERTWPPPAMSPYWRTWMTITQSWQ [C22orf15], the protein stability index reads like this: (treatment: DMSO) 2.31 ± 0.58; (treatment: MLN4924 1 uM, 8 h) 1.94 ± 0.32.

With ESAQATFQAHRDKYEKLRGDVAIK [ARFIP2], the protein stability index by setting is: (treatment: DMSO) 4.37 ± 0.16; (treatment: MLN4924 1 uM, 8 h) 4.62 ± 0.18.

As for ESIVPIPSSNEEIRLVDDAFGKIC [INTS4], the protein stability index amounted to 4.05 ± 0.35 (treatment: DMSO) and 4.29 ± 0.32 (treatment: MLN4924 1 uM, 8 h).

The sequence ESKKHQVETAFERLQQELEQQRCL [TRIM15] had a protein stability index (treatment: DMSO) of 4.61 ± 0.31 and a protein stability index (treatment: MLN4924 1 uM, 8 h) of 4.53 ± 0.12.

Regarding ESLSSQLSNLQKESRACLERIQEL [LMNB1], the protein stability index is, setting by setting: (treatment: DMSO) 4.28 ± 0.14; (treatment: MLN4924 1 uM, 8 h) 4.38 ± 0.13.

With ESQKKKQQDDSDEYDDDDSAASTS [ZNF207], the protein stability index is, setting by setting: (treatment: DMSO) 5.7 ± 0.1; (treatment: MLN4924 1 uM, 8 h) 5.53 ± 0.18.

With ESTNPEKAHETLHQSLSLASSPKG [CDC25A], the protein stability index is, setting by setting: (treatment: DMSO) 5.37 ± 0.37; (treatment: MLN4924 1 uM, 8 h) 5.45 ± 0.27.

As to ETTGIQIWSEVFTVEKPGGKKVAV [ATL3], the protein stability index (treatment: DMSO) was found to be 2.79 ± 0.24 and the protein stability index (treatment: MLN4924 1 uM, 8 h) stood at 3.01 ± 0.2.

Take EVLVKSNNLTDRIVVIPGKVEEVS [CARM1]: the protein stability index runs as follows: (treatment: DMSO) 3.66 ± 0.19; (treatment: MLN4924 1 uM, 8 h) 3.8 ± 0.43.

As to EVVPALEPTETLLSEKEINAREES [BCL2L13], the protein stability index amounted to 5.6 ± 0.13 (treatment: DMSO) and 5.58 ± 0.22 (treatment: MLN4924 1 uM, 8 h).

As for EWENNRESLIVFMEQVHRGIKGLV [CPXM2], the protein stability index came to 2.27 ± 0.56 (treatment: DMSO) and 2.07 ± 0.37 (treatment: MLN4924 1 uM, 8 h).

The sequence EWIRFDQSNVLCSIFGICMVFSGL [PTGFR] displayed a protein stability index (treatment: DMSO) of 2.87 ± 0.59 and a protein stability index (treatment: MLN4924 1 uM, 8 h) of 3.15 ± 0.071.

The sequence FAAEAGHIDIVKELIKWRAAIVVN [FEM1B] registered a protein stability index (treatment: DMSO) of 2.3 ± 0.28 and a protein stability index (treatment: MLN4924 1 uM, 8 h) of 2.02 ± 0.55.

In the case of FCREEMGEVLKSSTFSSGPSDKMK [SPOPL], the protein stability index by setting is: (treatment: DMSO) 3.53 ± 0.41; (treatment: MLN4924 1 uM, 8 h) 3.69 ± 0.23.

For FDLERENACATKEQKNHTFPRLNR [PLD5], the protein stability index (treatment: DMSO) was 4.55 ± 0.37 and the protein stability index (treatment: MLN4924 1 uM, 8 h) is 4.75 ± 0.28.

FEEQENYFLLCDVLPEDRILREEL [ZNF277]: the protein stability index was 3.26 ± 0.16 (treatment: DMSO) and 3.5 ± 0.67 (treatment: MLN4924 1 uM, 8 h).

As for FEEYALVNQDILENKESWDKILAL [PRIM1], the protein stability index stood at 3.3 ± 0.31 (treatment: DMSO) and 3.6 ± 0.45 (treatment: MLN4924 1 uM, 8 h).

Consider FETMAIEIEQLLARLTGVNDKMAE [GOSR1], for which the protein stability index by setting is: (treatment: DMSO) 3.06 ± 0.2; (treatment: MLN4924 1 uM, 8 h) 3.15 ± 0.38.

In the case of FGHRFIILDTDEYVLKYMESNAAQ [EFHC1], the protein stability index amounted to 2.25 ± 0.45 (treatment: DMSO) and 2.05 ± 0.31 (treatment: MLN4924 1 uM, 8 h).

For FHNAVSAYFAGNQKQLEQTLQQFN [ARFIP2], the protein stability index by setting is: (treatment: DMSO) 2.45 ± 0.23; (treatment: MLN4924 1 uM, 8 h) 2.34 ± 0.42.

In the case of FHPDPRQKALYRRLATVHMSRMIN [CLPTM1], the protein stability index is, setting by setting: (treatment: DMSO) 2.58 ± 0.55; (treatment: MLN4924 1 uM, 8 h) 2.39 ± 0.25.

With FHVDSAAEYYRLHLEGYHGTAGDS [TNXB], the protein stability index amounted to 2.81 ± 0.27 (treatment: DMSO) and 3.17 ± 0.31 (treatment: MLN4924 1 uM, 8 h).

Regarding FITRQLKGLEDTKSPQFNRYFYLL [PDS5B], the protein stability index reads like this: (treatment: DMSO) 2.01 ± 0.37; (treatment: MLN4924 1 uM, 8 h) 2.11 ± 0.16.

With FIVLFLLWPFAWLQVAGLSEEQLQ [LPCAT4], the protein stability index is, setting by setting: (treatment: DMSO) 2.65 ± 0.13; (treatment: MLN4924 1 uM, 8 h) 3.05 ± 0.59.
